Experimental findings from publication PMC12197737 are described below.

In this assay the target is recombinant TSWV-N protein (tomato spotted wilt virus nucleocapsid N protein) (Tomato spotted wilt virus (TSWV)). Put plainly: cross-linking.

“And” between values parts separate entries of the source, which are not always exact repeats. Equal values may be shown once.

For orientation: stoichiometry N means the number of molecules, sites or subunits per partner or assembly. Take “recombinant TSWV-N protein (tomato spotted wilt virus nucleocapsid N protein) (natural protein)”: the stoichiometry N is 2 and 3.
